{"source": "paper PMC9876794", "about": "(2022)", "binders": {"B1": {"name": "B07 (antibody, V domains shown)", "VH": "QVQLQQSGPELVKPGASVKISCKASGYVFSSSWMNWVKQRPGKGLEWIGRIYPGDGETNYNGKFKGKATLTADKSSSTAYMQLSSLTSEDSAVYFCARFDYGYDGHVWGTGTTVTVSS", "VL": "DIVMTQSQKFMSTSVGDRVSVTCKASQNVGTNVAWYQQKPGQSPKALIYSASYLYSGVPDRFTGSGSGTDFTLTISNVQSEDLAEYFCQQYNSYPLLTFGAGTKLELK"}, "B2": {"name": "B26 (antibody, V domains shown)", "VH": "QVQLQQPGAELVKPGASVKMSCKASGYTFTSYWITWVKQRPGQGLEWIGDIYPGSGSTNYNEKFKSKATLTVDTSSSTAYMQLSSLTSEDSAVYYCARDWDYGSSYWYFDVWGTGTTVTVSS", "VL": "DIKMTQSPSSMYASLGERVTITCKASQDIKSYLSWYQQKPWKSPKTLIYYATSLADGVPSRFSGSGSGQDYSLTISSLASDDTATYYCLQHGESPYTFGGGTKLEIK"}, "B3": {"name": "B06 (antibody, V domains shown)", "VH": "QAYLQQSGAELVRPGASVKMSCKASGYTFTSYNMHWVKQTPRQGLEWIGAFYPGNGDTSYNQKFKGKATLTVDKSSSTAYMQLSSLTSEDSAVYFCARDGYPYYYAMDYWGQGTSVTVSS", "VL": "DIKMTQSPSSMYASLGERVTITCKASQDINSFLSWFQQKPGKSPKTLIYRANRLVDGVPSRFSGSGSGQDYSLTISSLEYEDMGIYYCLQYDEFPWTFGGGTKLEIK"}, "B4": {"name": "A16 (antibody, V domains shown)", "VH": "DVQLQESGPGLVKPSQSLSLTCSVTGYSITSGYYWNWIRQFPGNKLEWMGYISYDGSNNYNPSLKNRISITRDTSKNQFFLKLNSVTTEDTATYYCARFHYGSRPRYWYFDVWGTGTTVTVSS", "VL": "DIQMTQTTSSLSASLGDRVTISCSASQGIRNYLNWYQQKPDGTVKLLIYYTSSLHSGVPSRFSGSGSGTDYSLTISNLEPEDIATYYCQQYSKLPWTFGGGTKLEIK"}, "B5": {"name": "B02 (antibody, V domains shown)", "VH": "QVQLQQPGAELVKPGASVKVSCKASGYTFTSYWMHWVKQRPGQGLEWIGRIHPSDSDTNYNQKFKGKATLTVDKSSSTAYMQLSSLTSEDSAVYYCAMDWDVDYWGQGTTLTVSS", "VL": "QIVLTQSPALMSASPGEKVTMTCSASSSVSYMYWYQQKPRSSPKPWIYLTSNLASGVPARFSGSGSGTSYSLTISSMEAEDAATYYCQQWSSNPFTFGSGTKLEIK"}, "B6": {"name": "B42 (antibody, V domains shown)", "VH": "B5 VH with G66D, Y95F, A97V, M98I, W100H, D101Y, V102F", "VL": "DIVMSQSPSSLAVSAGEKVTMSCKSSQSLLNSRTRKNYLAWYQQKPGQSPKLLIYWASTRESGVPDRFTGSGSGTDFTLTISSVQAEDLAVYYCKQSYNLYTFGGGTKLEIK"}, "B7": {"name": "B22 (antibody, V domains shown)", "VH": "EVKLEESGGGLVQPGGSMKLSCAASGFTFSDAWMDWVRQSPEKGLEWVAEIRNKANNHAIYYAESVKGRFTISRDDSKSSVYLQMNSLRAEDTGIYYCILFLTGHFDYWGQGTTLTVSS", "VL": "DIVMTQSQKFMSTSVGDRVSITCKASQNVRTAVVWYQEKPGQSPKTLIYLASNRHTGVPDRFTGSGSGTDFTLTISNVQSEDLADYFCLQHWNYPLTFGSGTKLEIK"}, "B8": {"name": "B43 (antibody, V domains shown)", "VH": "DVQLQESGPGLVKPSQSLSLTCSVTGYSITSGYYWNWIRQSPGNKLEWMGYISYDGSNKYNPSLKNRISITRDTSKNQFFLKLNSVTTEDTAIYYCARWDKGAMDYWGQGTSVTVSS", "VL": "B7 VL with V34A, E38Q, T46A, S65G, S100A, I106L"}, "B9": {"name": "B23 (antibody, V domains shown)", "VH": "EVKLEESGGGLVQPGGSMKLSCAASGFTFSDAWMDWVRQSPEKGLEWIAEIRNKANNHATYYAESVKGRFTISRDDSKSSVYLQMNSLRAEDTGIYYCTRGLTGPYFDYWGQGTTLTVSS", "VL": "B7 VL with S20T, V34A, E38Q, T46A, S100A, I106L"}, "B10": {"name": "B21 (antibody, V domains shown)", "VH": "B7 VH with I60T, I99T", "VL": "B7 VL with V34A, E38Q, T46A"}, "B11": {"name": "B03 (antibody, V domains shown)", "VH": "EVQLQQSGPELVKPGASVKISCKASGYSFTGYYMNWVKQSPEKSLEWIGEINPSTGGATYNQKFKAKATLTVDKSSSTASMQLKSLTSEDSAVYYCARAAGDYWGQGTTLTVSS", "VL": "DIVLTQSPASLAVSLGQRATISCRASESVEYYGTSLMQWYQQKPGQPPKLLIYAASNVESGVPARFSGSGSGTDFSLNIHPVEEDDIAMYFCQQSRKVPWTFGGGTKLEIK"}, "B12": {"name": "B08 (antibody, V domains shown)", "VH": "B11 VH with A58T, S80Y, A99G, A100G, G101A, Y103V, Q106T, L110V", "VL": "B11 VL"}, "B13": {"name": "B47 (antibody, V domains shown)", "VH": "B11 VH with G26D, A58T, S80Y, A99G, A100S, D102A, T109L, L110V, S114A", "VL": "B11 VL with W100Y"}, "B14": {"name": "B45 (antibody)", "chain 1": "QVQLQQPGAELVKPGASVKVSCKASGYTFTSYWMHWVKQRPGQGLEWIGRIHPSDSDTNYNQKFKGKATLTVDKSSSTAYMQLCSLTSEDCAVYYCAIWEDYGVFYAMDYWGQGTSVTVSS", "chain 2": "DIVMTQSQKFMSTSVGDRVSVTCKASQNVGTNVAWYQQKPGQSPKALIYSASYRYSGVPDRFTGSGSGTDFTLTISNVQSEDLAEYFCQQYNSYPLTFGAGAKLELK"}, "B15": {"name": "B46 (antibody, V domains shown)", "VH": "QVQLQQPGAELVKPGASVKVSCKASGYTFTSYWMHWVKQRPGQGLEWIGRIHPSDSDTNYNQNFKGKATLTVDKSSSTAYMQLSSLTSEDSAVYYCALDGYYGIWWGQGTLVTVSA", "VL": "B14 chain 2 with Y91C, A100G, A102T, L106I"}, "B16": {"name": "A11 (antibody, V domains shown)", "VH": "QVQLQQPGAELVKPGTSVKLSCKASGYTFTSYWMHWVKQRPGQGLEWIGMIHPNSGNTNYNEKFKSKATLTVDKSSSTAYMQLSSLTSEDSAVYYCADLGAWFAYWGQGTLVTVSA", "VL": "QIVLTQSPAIMSASPGEKVTMTCSASSSISYMHWYQQKPGTSPKRWIYDTSKLASGVPARFSGSGSGTSYSLTISSMEAEDAATYYCHQRSSYPWTFGGGTKLEIK"}, "B17": {"name": "A49 (antibody, V domains shown)", "VH": "QVQLQQSGSELARPGASVNLSCKASGYTFTSYGVSWVKQRTGQGLEWIGDIYPRSGNSYYNEKFKGKATLTADKSSSTAYMELRSLTSEDSAVYFCAREVYGYEFDYWGQGTTLTVSS", "VL": "DIQMTQTTSSLSASLGDRVTISCRASQDISNYLNWYQQKPDGTVQLLIYYTSRLHSGVPSRFSGSGSGTDYSLTISNLEQEDIATYFCQQGNTLPRTFGGGTKLEIK"}, "B18": {"name": "A23 (antibody, V domains shown)", "VH": "QAYLQQSGAELVRPGASVKMSCKASGYTFTSYNMHWVKQTPRQGLEWIGAIYPGNGDTSYNQKFKDKATLTVDKSSSTAYMQLSSLTSGDSAVYFCARDYYGCSYGYFDVWGTGTTVTVSS", "VL": "B4 VL with R30S, W96Y"}, "B19": {"name": "A21 (antibody, V domains shown)", "VH": "QVQLQQSGAELVKPGASVKISCKASGYSFSDYWMNWVKQRPGKGLEWIGQIFPGDGDTNYNGKFKGKAALTADKSSSTAYMQLSSLTSEDSAVYFCARRELNYFDYWGQGTTLTVSS", "VL": "QIVLTQSPAIMSASPGEKVTMTCSASSSVSYMFWYQQKPGSSPRLLIYDTSNLASGVPVRFSGSGSGTSYSLTVSRMEAEDAATYYCQQWSSYPLTFGSGTKLEIK"}, "B20": {"name": "B04 (antibody, V domains shown)", "VH": "QVQLKQSGAELVRPGASVKLSCKASGYTFTDYYITWVKQRPGQGLEWIARICPGSGNTFYNEKFMGKATLTAEKSSSTAYMQLSSLTSEDSAVYFCARRGTLLYAFAYWGQGTLVTVSA", "VL": "not shown"}, "B21": {"name": "B44 (antibody, V domains shown)", "VH": "QVQLQQPGAELVKPGASVKVSCKASGYTFTSYWMHWVKQRPGQGLEWIGRIHPSDSDTNYNQKFKGKATFTVDKSSSTAYMQLSSLTSEDSAVYYCAIGDGRDFDYWGQGTTLTVSS", "VL": "DVVLTQTPLSLPVNIGDQASISCKSTKSLLNSDGFTYLDWYLQKPGQSPQLLIYLVSNRFSGVPDRFSGSGSGTDFTLKISRVEAEDLGVYYCFQSNYLPLTFGSGTKLEIK"}, "B22": {"name": "B01 (antibody, V domains shown)", "VH": "B21 VH with V18M, F70L, D100G", "VL": "B21 VL with V56F, L101W, S105G"}}, "note": "Positions count from the first letter of the chain named.", "data": [{"target": "SARS-CoV-2 spike RBD (WT) (Severe acute respiratory syndrome …, UniProt P0DTC2)", "assay": "BLI", "units": {"Kd": "nM"}, "values": [{"binder": "B1", "Kd": 17700}, {"binder": "B2", "Kd": 104}, {"binder": "B3", "Kd": 110}, {"binder": "B4", "Kd": 140}, {"binder": "B5", "Kd": 580}, {"binder": "B6", "Kd": 91.8}, {"binder": "B7", "Kd": 269}, {"binder": "B8", "Kd": 40.7}, {"binder": "B9", "Kd": 211}, {"binder": "B10", "Kd": 17.2}, {"binder": "B11", "Kd": 52.6}, {"binder": "B12", "Kd": 87.2}, {"binder": "B13", "Kd": 26.5}, {"binder": "B14", "Kd": 837}, {"binder": "B15", "Kd": 282}, {"binder": "B16", "Kd": 7620}, {"binder": "B17", "Kd": 482}, {"binder": "B18", "Kd": 850}, {"binder": "B19", "Kd": 138}, {"binder": "B20", "Kd": 100}, {"binder": "B21", "Kd": 123}, {"binder": "B22", "Kd": 18.7}]}]}
